This is an account of results in paper PMC10786891, “Massively parallel profiling of RNA-targeting CRISPR-Cas13d”.

Where a chain is given by its changes, count along the chain named. In names and notes the source's numbering stands.

The labels stand for the following.
T1: EsCas13d, nuclease-dead (Eubacterium siraeum, UniProt B0MS50, R295A;H300A;R849A;H854A)
T1 sequence: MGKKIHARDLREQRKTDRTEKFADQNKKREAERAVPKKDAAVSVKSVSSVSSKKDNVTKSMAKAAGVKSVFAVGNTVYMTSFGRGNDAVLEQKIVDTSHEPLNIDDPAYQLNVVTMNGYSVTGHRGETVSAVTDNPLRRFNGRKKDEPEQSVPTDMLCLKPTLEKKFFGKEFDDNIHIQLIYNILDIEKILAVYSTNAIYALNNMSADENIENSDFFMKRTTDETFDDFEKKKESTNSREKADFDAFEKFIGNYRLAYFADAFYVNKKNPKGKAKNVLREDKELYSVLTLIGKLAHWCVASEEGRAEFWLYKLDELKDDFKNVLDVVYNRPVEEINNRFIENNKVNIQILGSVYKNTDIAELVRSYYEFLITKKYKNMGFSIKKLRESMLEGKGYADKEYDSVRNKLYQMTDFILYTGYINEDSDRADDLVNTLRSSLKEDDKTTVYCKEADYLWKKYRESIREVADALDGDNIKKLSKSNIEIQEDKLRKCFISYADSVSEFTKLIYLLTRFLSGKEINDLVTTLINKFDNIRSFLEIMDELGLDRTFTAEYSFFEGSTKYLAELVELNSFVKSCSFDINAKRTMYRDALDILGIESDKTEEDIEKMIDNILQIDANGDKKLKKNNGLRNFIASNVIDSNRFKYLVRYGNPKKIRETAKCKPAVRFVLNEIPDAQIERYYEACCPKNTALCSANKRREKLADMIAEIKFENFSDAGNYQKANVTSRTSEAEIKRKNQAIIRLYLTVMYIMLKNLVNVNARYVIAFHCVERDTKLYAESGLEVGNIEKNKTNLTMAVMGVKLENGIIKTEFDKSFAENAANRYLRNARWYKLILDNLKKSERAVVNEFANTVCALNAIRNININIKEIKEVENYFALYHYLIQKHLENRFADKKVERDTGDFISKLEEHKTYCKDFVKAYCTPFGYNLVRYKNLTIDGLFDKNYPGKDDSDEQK

B1: target 1 insC 3' of 12,insA 3' of 6 (mixed)
RNA 1: CACCCGUGCAAAAAUGCAGGGGUCUAAAACUGAGCGGAUAACCUCUCUAUGG
RNA 2: GGGAAUGGAUCCACAUCUACGAAUUCGUACCAUAGAGAGGCUUAUCCAGCUCACCGAGAUCGGAAGAGCACACGU
B2: target 1 insC 3' of 17,insC 3' of 3 (mixed)
RNA 1: B1 RNA 1
RNA 2: B1 RNA 2 with A36C, G37A, A38G, G39A, C41G, A48G, G49C, C50U, U51C
B3: target 1 insU 3' of 5,insC 3' of 3 (mixed)
RNA 1: B1 RNA 1
RNA 2: B1 RNA 2 with C41U, U43A, A44U, U45C, C47G, A48U, G49C, C50U, U51C
B4: target 1 insC 3' of 17,insC 3' of 9 (mixed)
RNA 1: B1 RNA 1
RNA 2: B1 RNA 2 with A36C, G37A, A38G, G39A, C41G, U45C, C46U, A48C
B5: target 1 insU 3' of 15,insC 3' of 12 (mixed)
RNA 1: B1 RNA 1
RNA 2: B1 RNA 2 with A38U, G39A, C41G, U42C, A44U, U45A, C46U, A48C
B6: target 1 G13U,A14U (mixed)
RNA 1: B1 RNA 1
RNA 2: GGGAAUGGAUCCACAUCUACGAAUUCGUACCAUAGAGUUGUUAUCCGCUCACCGAGAUCGGAAGAGCACACGU
B7: target 1 G5C,G13U (mixed)
RNA 1: B1 RNA 1
RNA 2: B6 RNA 2 with U38A, G47C
B8: target 1 insU 3' of 22,insU 3' of 1 (mixed)
RNA 1: B1 RNA 1
RNA 2: GGGAAUGGAUCCACAUCUACGAAUUCGUACUCAUAGAGAGGUUAUCCGCUCAUCCGAGAUCGGAAGAGCACACGU
B9: target 1 insU 3' of 7,insA 3' of 5 (mixed)
RNA 1: B1 RNA 1
RNA 2: B1 RNA 2 with C41U, U43A, A44U, U45C, C46U, A48G, G49A
B10: target 1 insC 3' of 8 (mixed)
RNA 1: B1 RNA 1
RNA 2: GGGAAUGGAUCCACAUCUACGAAUUCGUACCAUAGAGAGGUUAUCCCGCUCACCGAGAUCGGAAGAGCACACGU
B11: target 1 insA 3' of 21,insC 3' of 9 (mixed)
RNA 1: B1 RNA 1
RNA 2: GGGAAUGGAUCCACAUCUACGAAUUCGUACCAAUAGAGAGGUUACUCCGCUCACCGAGAUCGGAAGAGCACACGU
B12: target 1 insU 3' of 22,insA 3' of 2 (mixed)
RNA 1: B1 RNA 1
RNA 2: B8 RNA 2 with U53A
B13: target 1 insU 3' of 12,insA 3' of 5 (mixed)
RNA 1: B1 RNA 1
RNA 2: B1 RNA 2 with C41U, A48G, G49A
B14: target 1 G5U,A14C (mixed)
RNA 1: B1 RNA 1
RNA 2: B6 RNA 2 with U38C, U39G, G47U
B15: target 1 insU 3' of 22,insG 3' of 1 (mixed)
RNA 1: B1 RNA 1
RNA 2: B8 RNA 2 with U53G
B16: target 1 insG 3' of 22,insA 3' of 3 (mixed)
RNA 1: B1 RNA 1
RNA 2: B8 RNA 2 with U31G, C51A, A52C, U53A
B17: target 1 G15U,G17C (mixed)
RNA 1: B1 RNA 1
RNA 2: B6 RNA 2 with G35C, G37U, U38A, U39G
B18: target 1 U11C,G12U (mixed)
RNA 1: B1 RNA 1
RNA 2: B6 RNA 2 with U38A, U39G, G40U, U41C
B19: target 1 insG 3' of 21,insA 3' of 7 (mixed)
RNA 1: B1 RNA 1
RNA 2: B11 RNA 2 with A32G, C45U, U46C, C47A
B20: target 1 insU 3' of 22,insC 3' of 1 (mixed)
RNA 1: B1 RNA 1
RNA 2: B8 RNA 2 with U53C
B21: target 1 del15,del17 (mixed)
RNA 1: B1 RNA 1
RNA 2: GGGAAUGGAUCCACAUCUACGAAUUCGUACCAUAAAGGUUAUCCGCUCACCGAGAUCGGAAGAGCACACGU
B22: target 1 C2A,U19A (mixed)
RNA 1: B1 RNA 1
RNA 2: B6 RNA 2 with U33A, U38A, U39G, C50A
B23: target 1 U10C,C22A (mixed)
RNA 1: B1 RNA 1
RNA 2: B6 RNA 2 with C30A, U38A, U39G, U42C
B24: target 1 insA 3' of 17,insC 3' of 3 (mixed)
RNA 1: B1 RNA 1
RNA 2: B1 RNA 2 with G37A, A38G, G39A, C41G, A48G, G49C, C50U, U51C
B25: target 1 U3G,G13C (mixed)
RNA 1: B1 RNA 1
RNA 2: B6 RNA 2 with U38A, U39C, U49G
B26: target 1 A1U,U11G (mixed)
RNA 1: B1 RNA 1
RNA 2: B6 RNA 2 with U38A, U39G, U41G, A51U
B27: target 1 insG 3' of 16,insC 3' of 11 (mixed)
RNA 1: B1 RNA 1
RNA 2: B11 RNA 2 with A33U, U34A, A35G, G36A, A37G, U43C, A44U, C45A
B28: target 1 C2A,G12C (mixed)
RNA 1: B1 RNA 1
RNA 2: B6 RNA 2 with U38A, U39G, G40C, C50A
B29: target 1 G5A,U10G (mixed)
RNA 1: B1 RNA 1
RNA 2: B6 RNA 2 with U38A, U39G, U42G, G47A
B30: target 1 insC 3' of 10,insG 3' of 6 (mixed)
RNA 1: B1 RNA 1
RNA 2: B1 RNA 2 with C41U, U43C, A48G
B31: target 1 insU 3' of 14,insC 3' of 3 (mixed)
RNA 1: B1 RNA 1
RNA 2: B1 RNA 2 with G39U, C41G, A48G, G49C, C50U, U51C
B32: target 1 A14G,C21U (mixed)
RNA 1: B1 RNA 1
RNA 2: B6 RNA 2 with C31U, U38G, U39G

The target in this data set is T1, EsCas13d, nuclease-dead. The experiment in a line: crRNA (strand 1, pre-loaded); Mg2+; 40 mM Tris-HCl pH 7.5, 150 mM NaCl, 6 mM MgCl2, 1 mM DTT, 0.1% Tween-20, 0.2 mg/ml BSA; 25 C; 10 min per concentration, then washed. The conditions noted are these: tags: His6-TwinStrep-SUMO cleaved; N-terminal SNAP kept (SNAP-Surface 488); label: 3' end held by stalled T7 RNA polymerase.
The molecule B1 gave a Kd of 11.1 ± 0.5 nM.

B2 showed a Kd of 60 ± 13 nM.

B3 returned a Kd of 38 ± 6 nM.

For B4, the Kd amounted to 58 ± 13 nM.

As to B5, the Kd came to 35 ± 8 nM.

In the case of B6, the Kd turned out to be 8.2 ± 0.4 nM.

Molecule B7 returned a Kd of 40 ± 9 nM.

Molecule B8 registered a Kd of 37 ± 6 nM.

On to B9, for which the Kd amounted to 17.4 ± 1 nM.

B10 registered a Kd of 13.2 ± 0.7 nM.

In the case of B11, binding was put at a Kd of 31.5 ± 2 nM.

The molecule B12 had a Kd of 33.5 ± 2.8 nM.

As to B13, the affinity, expressed as Kd, was 4.32 ± 0.35 nM.

In turn, B14 returned a Kd of 20.7 ± 1.5 nM.

Molecule B15 gave a Kd of 35 ± 4 nM.

B16 displayed a Kd of 25.6 ± 2.3 nM.

In the case of B17, the equilibrium dissociation constant (Kd) stood at 34.6 ± 3 nM.

In the case of B18, the Kd turned out to be 10.2 ± 0.5 nM.

Consider B19, for which binding was characterised by a dissociation constant (Kd) of 46 ± 5 nM.

Take B20: the Kd is 29.1 ± 2.4 nM.

Molecule B21 registered a Kd of 90 ± 40 nM.

Consider B22, for which the Kd is 32.7 ± 3.3 nM.

Turning to B23, the Kd came to 35.5 ± 2 nM.

B24 yielded a Kd of 14.8 ± 1.1 nM.

For the molecule B25, the Kd is 30.3 ± 2.3 nM.

Molecule B26 displayed a Kd of 20.8 ± 0.9 nM.

The molecule B27 had a Kd of 46 ± 11 nM.

Consider B28, for which the Kd is 7.21 ± 0.25 nM.

For B29, the Kd stood at 35 ± 4 nM.

Turning to B30, binding was put at a Kd of 18.8 ± 2.1 nM.

The molecule B31 returned a Kd of 80 ± 40 nM.

In turn, B32 gave a Kd of 6.9 ± 0.4 nM.

The Kd is the equilibrium constant for the complex coming apart.
